Results reported in US20240026407A1, “MODIFICATION OF SAPONINS” (GLAXOSMITHKLINE BIOLOGICALS SA, priority 2020, published 2024).

Key:
Assay type in all cases: biochemical, Quillaja saponaria
[1] = Experiment 5-2: screening of additional glucosidases for deglycosylation with QS-18 in crude bark extract (80%) at pH 6 and 35 deg C; settings: CBE 80%, pH 6, 35 deg C, 18 hours; UV HPLC
Procedure, shortened: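 Deglycosylation of QS-18 was monitored by UV HPLC after MeCN/AcOH quench with hexanophenone. The reaction ran 18 hours at 35 deg C, shaking, combining clarified pH 6 lysate with crude bark extract neutralised to pH 6 by NaOH.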

[2] = Experiment 5-3: screening of additional glucosidases for deglycosylation with QS-18 in treated bark extract (80%) at pH 6 and 35 deg C; settings: TBE 80% (QS-21 approx. 4 g/L), pH 6, 35 deg C; UV HPLC
Description: Experiment 5-1 was repeated, replacing CBE with Treated Bark Extract (TBE) at pH 6. TBE was prepared from CBE by PVPP treatment and concentration, to provide TBE with a QS-21 concentration of approximately 4 g/L. TBE was adjusted to pH 6 by dropwise addition of 2M NaOH with stirring.

[3] = Experiment 5-1: screening of additional glucosidases for deglycosylation with purified QS-18 (0.04 mg/ml) at pH 7.5 and 30 deg C; settings: pH 7.5, 30 degrees C, 18 hours, LCMS/MS
Description: The 94 additional genes, together with positive control (DNA encoding SEQ ID No. 262) and negative control, were transformed, expressed, lysed and reacted in the same manner as described above for Experiment 4-1, except the reaction was incubated at 30 degrees C. for 18 hours.
Samples were analysed by LCMS/MS according to the procedure in Experiment 4-1.

Molecule	Experiment 5-2 % conv [1] [%]	Experiment 5-3 % conv [2] [%]	Experiment 5-1 % conv [3] [%]
832 (protein, listed as Arthrobotrys oligospora) MDATTLKEIEETLAQLTLEEKISLLAGKDFWRTVPLPEKQIPSIKVSDGPSGARGDTFSGGQKAAFFPSGILMGATFNPELAYETGALLGEEVKAKSASVLLAPTACCHRSPLGGRNFESYSEDPLLSGKMASGYIRGVQSRGIAATMKHFVANEQETWRLYVDETIDETTLREIYLKPFEIAMREGQPWAIMTAYNIINGVHCDSHPLALKQVLRGEWNYEGLVMSDWFGCNSMVESLLAGLDLEMPGPARKRPIKEFVEAAEKDESIRKAIDDSARRILTLIAKVGKWKDMTPEAPEYSRNDPETGKLIRRAGGEGTVLLKNEGKTLPLQPGSLKKVAFIGPNAKATVAGGGGSASLEPNYLTQPYETFVNAIKEINGDIEVPWVQGCIIDRWVPNIDVEGGFCRVGGPDSEAGLFLEWFRGYEATGEPVATTVFKTSNAFLWDSRPTSISPSEEFSVKFSGQISVPEDGKYNISLSTITASKLYLNGELLIDNWDFKERGNLMMNVGSEEVVKTIELKKGEWYPILVHNSSIWPKDSPRDPPMEEIGALGIRLGVAPVYDNAVLIAEAADAVKDADAVVIVVGLNNEWESESYDRSDTKLPNNQDDLIEEIAKVNQNVIVVNQSGAPVDMPWAENSNVKAIVQAWYAGQEAGHVIADVLLGKQNPSGKLPLTFPIKVQDNPSYFYFPGRDQKVEYTEKLMVGYRYYDTENVETRFPFGYGLSYSTFSIGEPSLSTAELTEGQTFTANIDVSNTSNVAGAEVVQLYVKRPASTSSIKRPVKELKGFKKVHLGTGETATANITVDDKSLGIWSTEAGKWVVEAGDYEVLIGTSSVQDELKPAGKITVKAAWSWI	<0.5	<0.5	9.8
871 (protein, listed as Dactylellina haptotyla) MLDESVSREIEETLAQLTLEEKISLLAGKDMWRTVPIPDKQVPSIKTSDGPSGARGDSFTGGTKAAFFPSGISMGATFNPELAYEVGQFIGDEVKSKSASVLLAPTACCHRSPLGGRNFESYSEDPLLSGKMASAYIRGVQSKNVAATMKHYAANEQETWRLHVDETIDETTLREIYLKPFEIAMREGRPWAVMSAYNIINGEHCDSNSLTLKQVLRGEWKYEGLVMSDWFGCNSMVDSLLAGLDLEMPGPAKVRPVKELVAKAEKDDSIREAVDKAARRVLTLIAKVGKWKDMTPEAPEISREDPETGKLIRRAGGEGVVLLKNDGALPLQPASLKSIAFVGPNAKATVAGGGGSANLNPNYLTQPYETFVKAIKEIDASIEVPYAQGCIIDRWIPPVNAESGLCRSGGPGSEPGWLVEWFRGHDLKGEVVSSSVFKNSDVFLWDGRPEGLNPAEGYSIRFSGQVSVPEDGNYNIALSTITAGNLYVDGELLIDNWDFKERGNLMMNIGSEEVVKTLELKKGQWYNIEVRNASIWPKDSPRDPPMEEIGALGVRLGLAAVYDNNSLIAQATDSVKNSDAVVIVVGLNNEWESESYDRTQTKLPRNQDELIEEIAKVNKNVIVVNQSGAPIDMPWVENPNVKGIIQAWYAGQEAGNVIADVLLGKQNPSGKLPLTFPVKLEDNPSYNYFPGKDKKVEYTEKLMVGYRYYDTDNVKPRFPFGYGLSYSSFKVGKPVLSTTELSEDGSFTATVEVSNTSAVAGAEVIQLYVQRKTSGTSSIKRPIKELKGFKKIHLQPGETKTAEVTVDDKSLGIWSPEAGKWVVEAGDYEVLVGTSSVYDELAAAGTVVAKSAWSWI	<0.5	<0.5	7.8
883 (protein, listed as Salinispira pacifica) MKSIQEIRSSLTLEEKASLCSGKDFWNLKSFESKGVPAIMVADGPHGLRKQMESSADHIGIGGSVPATCFPTASAMASSWDTQLLNEVGNALGEECRQEHVAVLLGPGVNIKRSPLCGRNFEYFSEDPYLGGKLAASLIRGVQSMGVGTSLKHFAANNQERRRMIIDAVVDERALRELYLAGFETAVKESSPKTVMCAYNKLNGAFCSENHRLLSEILKEEWGFEGFVVTDWGAVNDRVAGLNAGLDLEMPASGGYNDNLMVEAVQNGTLSENSLNDAVDRILKVVLETHTALQEEFTYDAAAHHRLAQKAESESAVLLKNDKLFPLNSEDFRTEEKHGSQEHKSPKLALIGSFAKEPRYQGSGSSLINPRQLDSAYDAISRELGGDMQLLYAPGYDPADEEPDSRLIQEAVNTAAAADTVIVFAGLPEISESEGFDREHLSMPRSHNDLISAVAQVNPRTAVVLSNGSPVTMPWLDSVPAVLESYLGGQAWGSAISDIIFGRANPSGKLAETFPLSLQDVPSSAQFPGGSASVVYTDSLYVGYRYFSGTGKPVLFPFGHGLSYTRFSYDGLKITGRGTGRTVQCRITNTGSRDGKEVIQLYVHSESSSVFRPEQELKGFSKVSLAPGEEKTVEFRLDDRSFAYWDPGAGDWMVESGNYEIRIAASSADIRLRETIRIDSTQTPSQWAADLRNRIPEFFSPAPELFHDISPESPFRKLLGRPIPPPHWDTREGFTRNSTLEETTRTFIGRILYKAVMREGSRMMSQDADEKSIAMMQAVIREMPLKNLGMMGGDKISMHTVDSLILLLNGKIIRGLGSLLRRK	<0.5	<0.5	7.0
830 (protein, bacterium) MGTAHDLEQLIAGLTLEEKIALLAGDSLWTVPGIPRLGIRPLKVSDGPAGVRGSRIVPAAAFPAPVLLGATWDPELVERVGQALAEEAETKGAQVVLAPTINLQRTALGGRNFECFSEDPHLTARLAVAYVRGLQSRGIGACIKHYVANDQEFERHTVSVEVDERTLREVYLFPFAVAVAEADPWCVMAAYNRVGGIYCSEHPWLLTTILREELGYQGVVMSDWFATHSTIEALQAGLDLEMPGPPQWRGDKLREAVERGEVALEVIERSARRVLMLYQRAGRFAPGPETSEERAVDRPEHRALIREVGASGMVLLRNEGILPLDLSTVKRVAVIGPHVRRPAVGGGGSAFVRSHPVVTPLEALRESAPQCEFLVEEGAAIFKLIPPLEGEALGSEGAELAFFANPELAGAPVATIRVRTTDLIWLGEVAPGVDASAFSARLRVTMRPEESGRYVLGATAVGQVRVHLDGTLVLDNWTAPQPGRTYFGFGSAEVRAAVDLEAERAYEIVVEYRKFQPGLPLAGFRFGVVHELSDEERIARSVRAAQQADLALLFVGLSPEWESEGFDRESFDLPGAQNALVTAVADANPNTVVVLTAGSPVNLPWLERVGALLLAWYAGEEVGHAVVDVLTGVREPAGRLPFTYPQRLEDTPAFLNYPGEFGRLRYCEGLFIGYRWYDARQIEPLFPFGFGLGYTRFAYRDLVLDRESLGGEEKLTVTCTVENVGERAGSEVVQLYLAFPPGTVRRPLKELRGFRRVHLMPQGSASVSFTVSPRDLAYFDEAAREWVAPPGEYEIMIGAHARDIRLRGRFLLREELRWDAGGRFRDV	<0.5	<0.5	9.3
845 (protein, listed as Kitasatosporia setae) MTQLSMPSSLTTPASGTDHRVLDLERKARLVSGGDTFRTSPEPALGLFPIVCSDGPVGVRGERWDEADTALLLPCATALAASWDEELVARMGGLLAAEARRKGVHVVLAPTLNLHRSPLGGRNFECFSEDPLLTARIGAAYIGGVQALGVAATAKHYVANDSETERLTVDARVDERTLREVYLAPFEAAVRAGVWAVMSAYNRVNGTSMVEHPLLAEPLKGEWGFDGLVVSDWGSVREADGPGAAACDLSMPGPNPAWGPALAAAVRAGRVPAAALDDKVERLLRLAGRVGAFDPPPAGRAPVPADPATRGALRAAAVAGTVLLHNPDRLLPLDEPALRRVAVLGPNAATARVQGGGSASVFPAAPVSPLNGLRAALDPSVEVTHAPGVRTELRPTPLAAADCVLPDGSGPGVLVRYLAADGSPLHTEARATGRVLEPSADVDLTAVRTIEVASRFTAPSAGRWRLGVVGLGALRLEADGAVLLDEYVAPLSDDPTYLHVAPSFRQVELELAAGQGVDLLARRTVEPEHGRVLVLAADRPAAELEREFAHAVELAAAADVAVVVVGTTDEHESEGFDRAGLRLPGRQDELVEAVAAVNPRTVVVVNTGSPVLLPWRERVGAVLTCWFPGQEGGGALAEVLLGRAEPGGRLPTTWPDAEADCPVYATAPSGGRLAYAEGPHLGHRGWLRAGRTPAYWFGHGLGWGEWCYLALGEPSAPAADGSRTVRVALRNDGPRRSRETVQLYLSRPDSELDRPVRWLAGFGAVEAGPGERVEVELRLPQRALQHWSVEDRAWRTEPGTFVLHVGPHSGELPLAAALPVGA	<0.5	<0.5	9.2
837 (protein, listed as Bifidobacterium magnum) MTDNLTIGVTEANELSVKEQASLTSGQDAWHLQGIPSKGIPGYMITDGPHGLRKTTAGNGDEMNLDRSVPATCFPPAAGLSSSWNPQLVREVGEAMGEECVQEKVAVILGPGVNIKRNPLGGRNFEYWSEDPYLAGHEAAGIVDGVQSKGVGASLKHFAVNNQETDRFRVSALVSERALREIYLPAFEYIVKHSRPWTVMCSYNKINGVYSSENHWLLTDVLRKEWGFDGIVMSDWGADHNRVAALNAGLNLEMPPSGTDEQVVQGVENGTLKREQLETMAQAMIDLAHKAEDAMNQDGYRYNVDDHNNTARRAARESMVLLKNEEHVLPVKEQDHIAVIGEFARTPRYQGSGSSRINPTRLTSFLDAAQERGVSLTFAPGYTLDQSPADTQLEQEAVDAAAQADTVLMFMGLPDYDESEGFDRTTLAMPAKQLELLGKVTAANKRVVVILSNGSAVTMTPWNESVPAILETWLLGQAGGVALADIVFGDVSPSGRLAQTIPVELTDDPSTINWPGEEHHVNYGEGVFVGYRYYDTFHKPVAYPFGFGLGYADFAIDEVQVRATGVHAAQVRAKVTNLSQDTAASHVVQVYVRPVEPKVPGEASEHVARPVHELKGFAKVYLEPGQSDTVTIDLDERAFAYWSEEFHDWRIEGGEYGIEVGSSSRDIAATVPVTIAGDGKRKPLTVWNTLDEWRKDPVGKAVAGELMAKLREQGADFTGGDTSTEIFMNTLPINSLTALMGPQGNQVEDFLLGEYARRTQ	<0.5	<0.5	7.6
